The nature of this data set: protein stability index of a GFP-peptide fusion (GPS, HEK-293T) (PSI 1-6); higher = more stable.
Where [1] appears, read: treatment: DMSO, c terminus: a fixed tail appended.
The mark [2] stands for this setting: treatment: MLN4924 1 uM, 8 h, c terminus: a fixed tail appended.
The mark [3] stands for this setting: treatment: DMSO, c terminus: native.
Setting [4] is: treatment: MLN4924 1 uM, 8 h, c terminus: native.

± gives the standard deviation.
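Also: 24-mer peptide tiles fused after GFP, lentivirally expressed, FACS-sorted into six equal bins by GFP/DsRed ratio, decoded by Illumina sequencing, PSI is the read-weighted mean bin number.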

For the sequence YKMDHRRRGIALIFNHERFFWHLT [CASP6], the protein stability index was 2.4 ± 0.72 under setting [1] and 2.2 ± 0.47 under setting [2].
Turning to NDPSGSEEADFLSAETGSPRLTMH [IRX6], the protein stability index was determined as 5.16 ± 0.083 under setting [1] and 5.2 ± 0.057 under setting [2].
For the sequence LENELDLKLVSFSKLCTSYSHSST [GOSR1], the protein stability index was 2.98 ± 0.13 under setting [1] and 2.93 ± 0.16 under setting [2].
For RFFACPSKATFSRNIMNLIDIVAI [KCNA3] the same measures were 2.8 ± 0.61 and 2.87 ± 0.46.
For PDGKEMAEEYDEKTSELLVRKWRV [DPCD] the same measures were 4.31 ± 0.23 and 4.41 ± 0.11.
For the sequence CSCEWMAAMFGGSFVESANSEVYL [RHOBTB1], the protein stability index under setting [1] turned out to be 2.96 ± 0.62 and the protein stability index under setting [2] worked out at 2.85 ± 0.89.
YHQGCLVNPTGNLPMWSNQTWNNS [NANOGP8]: the protein stability index under setting [1] turned out to be 2.5 ± 0.36 and the protein stability index under setting [2] is 2.57 ± 0.066.
For the sequence MADKAKPAKAANRTPPKSPGDPSK [TPPP], the protein stability index is, setting by setting: under setting [1], 5.22 ± 0.25; under setting [2], 5.39 ± 0.15.
For IIANTMAFQNDVYEWARDHRAHHK [SCD], the protein stability index under setting [1] was 2.52 ± 0.17 and the protein stability index under setting [2] is 2.86 ± 0.27.
As for ATNQCTIDKNRRKSCQACRLRKCY [ESR2], the protein stability index by setting is: under setting [1], 3.39 ± 0.25; under setting [2], 3.47 ± 0.18.
Consider LLARPGTGEHREFKLDKKYQRPQD [FBF1], for which the protein stability index reads like this: under setting [1], 3.95 ± 0.41; under setting [2], 4.16 ± 0.3.
IYVVGGFDGTAHLSSVEAYNIRTD [KLHL12] came in with a protein stability index under setting [1] of 3.08 ± 0.28.
Take AGEGLPQVYYFGPCGKYNAMVLEL [CSNK1G1]: the protein stability index is 3.19 ± 0.65 under setting [1] and 2.65 ± 0.94 under setting [2].
Take ADDESLLRTSNGQPVKTAGEITQH [DNAAF3]: the protein stability index was 5.26 ± 0.35 under setting [1] and 5.26 ± 0.2 under setting [2].
On to RRLIKRFSFKSKPKANGNPSPQL [C2CD2L], for which the protein stability index came out at 4.24 ± 0.3 under setting [3] and 4.38 ± 0.16 under setting [4].
For PGITRVYSIGRSVEGRHLYVLEFS [CPN1], the protein stability index amounted to 3.12 ± 0.91 under setting [1] and 2.81 ± 0.63 under setting [2].
For GPRDPQLVPILIEAARNGKMKFVI [NSDHL] the same measures were 2.11 ± 0.44 and 2.38 ± 0.38.
For AELQCEVAALREEQKVLSRLVESL [RASAL3] the same measures were 4.09 ± 0.23 and 3.94 ± 0.37.
As for PGAYYPYERTLGQYQYERYGAVEL [IRX6], the protein stability index runs as follows: under setting [1], 2.3 ± 0.33; under setting [2], 2.41 ± 0.21.
For the sequence SLVADNCVTLVWRMPDEDSKIDHY [FSD1], the protein stability index runs as follows: under setting [1], 2.62 ± 0.15; under setting [2], 2.94 ± 0.34.
In the case of GCEHSCVSSEDSFVCQCFEGYILR [MATN2], the protein stability index by setting is: under setting [1], 3.12 ± 0.38; under setting [2], 3.27 ± 0.53.
For the sequence VNDNAPEVLLASLANPVLESTPVG [PCDHGC5], the protein stability index under setting [1] was 4.55 ± 0.18 and the protein stability index under setting [2] worked out at 4.51 ± 0.12.
Take GIDIMKTSFPGRGSIPEFFHIMKR [AASDHPPT]: the protein stability index under setting [1] is 2.33 ± 0.59 and the protein stability index under setting [2] stood at 2.501 ± 0.013.
For GVEVIVRISHTLYDLDKIIELNGG [CRY1] the same measures were 3.29 ± 1.2 and 2.57 ± 0.76.
For SAGEQKTERMDKVGDALEEVLSKA [GADD45A], the protein stability index by setting is: under setting [1], 5.58 ± 0.18; under setting [2], 5.41 ± 0.26.
Consider LEEEEEEEDLVLTCEDDEDEELGG [ZBTB22], for which the protein stability index under setting [1] came to 5.57 ± 0.2 and the protein stability index under setting [2] was 5.56 ± 0.18.
With QVAKTKQQIEEQRVQVQVVERAQQ [FLOT1], the protein stability index reads like this: under setting [1], 5.18 ± 0.16; under setting [2], 5.32 ± 0.15.
For VADRWYSEIKNYNFQQPGFTSGTG [GLIPR2] the same measures were 2.61 ± 0.097 and 2.93 ± 0.34.
In the case of YVYKAASEGKVLTLAALLLNRSES [FEM1B], the protein stability index runs as follows: under setting [1], 2.78 ± 0.69; under setting [2], 2.62 ± 0.56.
On to ETHLRHMKALLGSYAHSVEDTHVQ [FCHO1], for which the protein stability index under setting [1] was determined as 3.49 ± 0.5 and the protein stability index under setting [2] was found to be 3.35 ± 0.29.
For AVLYPRFMGTISDVKTNVQLLKGR [CD207] the same measures were 2.49 ± 0.11 and 2.56 ± 0.16.
With KVPRPDALDNESWGFVHPRLLSVP [RETREG3], the protein stability index amounted to 2.91 ± 0.13 under setting [1] and 2.74 ± 0.081 under setting [2].
For LQLRYSLRILIGDPPHHDHHDEFC [BEX5] the same measures were 2.74 ± 0.54 and 2.48 ± 0.45.
For the sequence LVQLDDYRFASAGDDGIVVVWNAQ [WDR41], the protein stability index runs as follows: under setting [1], 2.64 ± 0.28; under setting [2], 2.87 ± 0.31.
For SINTHLGKEQSRRDDLEALGHMFM [CSNK1G3] the same measures were 2.81 ± 0.28 and 3.03 ± 0.49.
For the sequence IQNAHKNSTGSGRGKKLMVLTEPI [TPRG1], the protein stability index is, setting by setting: under setting [1], 3.89 ± 0.24; under setting [2], 3.66 ± 0.28.
As for ADRCSPKEDQAWDGASQDCPPLPA [FBXO34], the protein stability index is, setting by setting: under setting [1], 5.27 ± 0.18; under setting [2], 4.99 ± 0.14.
For DLLAYGAKAELPKYKSFNRTAMPY [MYOZ1], the protein stability index came to 2.42 ± 0.12 under setting [1] and 2.29 ± 0.19 under setting [2].
For the sequence VFRWLAYSYASTHRLMTDARRRVC [CPXM2], the protein stability index runs as follows: under setting [1], 2.35 ± 0.32; under setting [2], 2.54 ± 0.32.
As to AKIEVEKLKAIRLRHDLPEYNSL [RAD54B], the protein stability index amounted to 3.62 ± 0.21 under setting [3] and 3.81 ± 0.2 under setting [4].
Take APPLQAETPGSAVDYPLHDLVLHT [TNXB]: the protein stability index under setting [1] came to 4.16 ± 0.23 and the protein stability index under setting [2] is 4.17 ± 0.2.
Consider IMALVAAILLLVIIILIVMKYRT [VAMP4], for which the protein stability index runs as follows: under setting [3], 3.07 ± 0.33; under setting [4], 3.16 ± 0.07.
Regarding GPSAEAYLLHPAAFHGAPSHLPTR [TBX6], the protein stability index turned out to be 3.31 ± 0.21 under setting [1] and 3.42 ± 0.16 under setting [2].
For EHLPVKPDTMEKLRTHIDAIILAL [DENND6A] the same measures were 2.64 ± 0.3 and 2.63 ± 0.51.
DGKRCRRKDVCKSTHHGCEHICVN [MATN2]: the protein stability index stood at 3.65 ± 0.3 under setting [1] and 3.92 ± 0.21 under setting [2].
For AHRAILVARCEVMAAMFNGNYMEA [RHOBTB3] the same measures were 2.54 ± 0.95 and 2.08 ± 0.97.
For the sequence TQKLEEIKENAQDTMRQINKKGFW [TOR1AIP2], the protein stability index is, setting by setting: under setting [1], 3.61 ± 0.16; under setting [2], 4.08 ± 0.36.
For KYDYLMTLHGVVNESTVCLMSYER [TENT5D] the same measures were 2.38 ± 0.34 and 2.36 ± 0.22.
With SALATQYMHCVNHAKQSMLEKGG [CHCHD3], the protein stability index amounted to 2.81 ± 0.55 under setting [3] and 3.02 ± 0.34 under setting [4].
In the case of ETKKVLGLQDTITAELVVIEDAAE [PALM], the protein stability index under setting [1] came out at 4.92 ± 0.35 and the protein stability index under setting [2] was determined as 4.78 ± 0.32.
On to YSPSQYALQYAGDGSVLLIPRTMA [NFE2L1], for which the protein stability index turned out to be 2.11 ± 0.22 under setting [1] and 2.26 ± 0.22 under setting [2].
DGSTYKIELEGISVMVMREILDYI [GAN]: the protein stability index under setting [1] stood at 2.3 ± 0.39 and the protein stability index under setting [2] was 1.93 ± 0.15.
For GLEHAAAGGSSGTTARERPCVRPG [FBF1], the protein stability index is, setting by setting: under setting [1], 4.96 ± 0.24; under setting [2], 4.95 ± 0.2.
For LAFPLKHPDSWRAYPFYWAWLPQA [PI4K2A] the same measures were 2.42 ± 0.65 and 2.48 ± 0.84.
As to LRAIDFGTDEEEEEFIEEEDQEEE [TRIM63], the protein stability index reads like this: under setting [1], 5.63 ± 0.15; under setting [2], 5.65 ± 0.13.
For QLLSAMGSLCSLWFGASVLSLLEL [SCNN1D] the same measures were 3.2 ± 0.61 and 3.19 ± 0.49.
For CFQDFKEEKPQENKTWREQYLRLP [ELOA2] the same measures were 3.15 ± 0.35 and 3.25 ± 0.41.
HPNIITLHDIFENKTDVVLILELV [DAPK3] returned a protein stability index under setting [1] of 2.54 ± 0.14 and a protein stability index under setting [2] of 2.34 ± 0.23.
TKETEQLRSQLQTLKQQHQQAVEQ [CCDC89] came in with a protein stability index under setting [1] of 4.9 ± 0.19 and a protein stability index under setting [2] of 4.87 ± 0.21.
For EAQLLQLKVKCLNNLAASQLKLDH [FKBP8] the same measures were 2.69 ± 0.26 and 2.95 ± 0.23.
Take EDQGGLEAVRQEMRRQEPLPPPPP [WAS]: the protein stability index was 5.3 ± 0.15 under setting [1] and 5.42 ± 0.22 under setting [2].
The sequence VVILPCQHNLCRKCASDIFQASNP [TRIM55] came in with a protein stability index under setting [1] of 2.48 ± 0.34 and a protein stability index under setting [2] of 2.38 ± 0.22.
For MFSFNMFDHPIPRVFQNRFSTQYR [UFD1], the protein stability index is, setting by setting: under setting [1], 2.13 ± 0.17; under setting [2], 2.22 ± 0.22.
For RYFYLLENIAWVKSYNICFELEDS [PDS5B] the same measures were 2.75 ± 0.2 and 2.05 ± 0.61.
Regarding PVLKRSSESMENINSGYETRRKKG [KMT2E], the protein stability index runs as follows: under setting [1], 4.87 ± 0.28; under setting [2], 4.72 ± 0.29.
ESFRDLQLRLLQAPLQADLTEQVW [SCARA5] had a protein stability index under setting [1] of 2.59 ± 0.089 and a protein stability index under setting [2] of 3.1 ± 0.4.
For IDICHDHFGWYLGWGDCVWLPYLY [DHCR7] the same measures were 2.55 ± 0.12 and 3.3 ± 0.27.
For PGPPGSSRPVKGQVVTVHLQTSLE [FKBP8] the same measures were 3.5 ± 0.48 and 3.53 ± 0.22.
For LRAQVPFEQILSLPELKANPFKER [CIB1], the protein stability index is 3.17 ± 0.29 under setting [1] and 3.1 ± 0.42 under setting [2].
For KPILLHQVEALAAAGVDHVILAVS [GMPPB] the same measures were 2.55 ± 0.48 and 2.61 ± 0.5.
For LEDTCKTIEECCRKQKQELCEKFD [TRIM55] the same measures were 4.86 ± 0.094 and 4.74 ± 0.25.
For LLGLKAFLGLFFIVRFLESNWFVW [FADS1] the same measures were 2.9 ± 0.47 and 2.31 ± 0.43.

The values above are taken from the supplement of paper PMC10567573.
